Experimental data published in article PMC7506551, “A heterotrimeric SMARCB1–SMARCC2 subcomplex is required for the assembly and tumor suppression function of the BAF chromatin-remodeling complex” (Cell Discovery, 2020).

B1: isolated Rpt1 motif of SMARCB1 (domain or fragment)
chain: DDHDPAVIHENASQPEVLVPIRLDMEIDGQKLRDAFTWNMNEKLMTPEMFSEILCDDLDLNPLTFVPAIASAIRQQIESYPTDS
B2: SMARCC2 (aa 325–518) (domain or fragment, human, UniProt Q8TAQ2 325-518, looked up)
chain: TKSKRGHREEEQEDLTKDMDEPSPVPNVEEVTLPKTVNTKKDSESAPVKGGTMTDLDEQEDESMETTGKDEDENSTGNKGEQTKNPDLHEDNVTEQTHHIIIPSYAAWFDYNSVHAIERRALPEFFNGKNKSKTPEIYLAYRNFMIDTYRLNPQEYLTSTACRRNLAGDVCAIMRVHAFLEQWGLINYQVDAES
notes: SMARCC2/BAF170, human, residues 325-518, holds the SWIRM domain; resolved 423-514 in the crystal, residues 325-422 possibly degraded during crystallization; Two copies stand in the heterotrimer with one SMARCB1 169-385; also called SMARCC2^(325–518); BAF170

Columns and labels:
[1] = biological target: T1, SWIRM domain of SMARCC2 (aa 423–518) (human, UniProt Q8TAQ2 423-518); test: ITC; conditions not shown; two-site binding model for SMARCC2 325-518 with SMARCB1 169-385; settings: both partners purified
T1 construct: SMARCC2/BAF170, human, SWIRM domain, residues 423-518; also called SMARCC2^(423–518); SMARCC2^SWIRM

SMARCB1 (aa 169–385) = biological target: T2, SMARCB1 (aa 169–385) (human, UniProt Q12824 169-385); test: as above; settings: both partners purified
T2 construct: SMARCB1/BAF47/INI1/SNF5, human, residues 169-385, holds the Rpt1 and Rpt2 motifs; resolved 184-356 in the crystal; they may stand in the supplementary information; also called SMARCB1^(169–385); BAF47

Binder	Kd [1] [nM]	Kd of one of the two sites (two-site binding model) (SMARCB1 (aa 169–385)) [nM]
B1	~120	
B2		112
